The record followed here is the DeepSol protein solubility set.

The series in a line: soluble on expression in E. coli; label from the status in PepcDB or PDB records.
Consider “MTYTTRQIGAKNTLEYKVYIEKDGKPVSAFHDIPLYADKENNIFNMVVEIPRWTNAKLEITKEETLNPIIQDTKKGKLKFVRNCFPHHGYIHNYGAFPQTWEDPNVSHPETKAVGDNDPIDVLEIGETIAYTGQVKQVKALGIMALLDEGETDWKVIAIDINDPLAPKLNDIEDVEKYFPGLLRATNEWFRIYKIPDGKPENQFAFSGEAKNKKYALDIIKETHDSWKQLIAGKSSDSKGIDLTNVTLPDTPTYSKAASDAIPPASLKADAPIDKSIDKWFFISGSV”, for which the “soluble on expression in E. coli” value is recorded as “soluble”.
The result for “MVAAAAATGILSLCGSPALADSHADGAATNSPGAVSGNALQVPVDVPVNACGNTVDVIAALNPAFGNECENASDEKTDGHGGGYGEDASSSSSSSTSASSSGSHADGATEGSPGVGSGNNAQVPVDVPVNLCGNTVDVIAALNPVFGNKCENDAEEPPGYGEEEPPPPTTPPGYGEEEPPPPTHEEPPPPSGEEEPPPPSEEEHTPPAPQTEQPPALAETGSEGTLGAAAAGAVLIAGGAILYRRGRALSGRLEHHHHHH” reads “not soluble”.
For “MVAATPVQFVLPPLPEAPTAAAARLDGLSLADSGGGAGVRTVRLREALYGAGPYESADASMAELAAQIASLDRDKARSALAAVWQATVLGRPNRAANQVALAAAGGVLLLVDVAVQRLAGVRLEGGARSCSREDEEEAVMALLVLENLSCNVSLHRDMVLGAPGPHLLQMLVALAKDNTAAAAVRVNAAKVLVNLTFSQIELAAAATEAGALPAAVSLLQAGQKQALAETDAEVALGLHRQGAWLLSHLTAGQGCQARELLAAQPQALARIKDLLTTSRDTATLIRCCEVVCNLARGDVGPHAELIRAGLVQVLLKLVEVETEAPAPTGAARSEGSSVDLLLPALTALAALAAGGAACARGLLAHAPLLRTLTGALEWSNLISRDHDLSRVMLAAHSLVYVLGRFALRNRIVVPGVRAGVVVDAGMGATPAAATPQAQQVLQESGYVSFAAAMAALGLQQPRYTAAILGTELESGPHSAVASAAYQVNTELLPMMRHDNARMVVNTCARLYQIAVCLRDSPECRSVLSNTSLSLALSDLLRSQHSSVLQAALCLTDALAALPEVVPQLAANGVLDRLCDLLHNTSAQPQEHKAGTADTAGDPLVVLLAERALVTMFLTRGQHQAE”, the “soluble on expression in E. coli” value is recorded as “not soluble”.
For the sequence “MVADIELDAAQSIAAVLFDKDGTLLGYDASWGPVNRELASIAAKGDAALADRLLAACGMDPVTGHVVPDSLLAAGNTAEIAAGLVAAGSSCDVVELTQRLDRLFTEAADKSVPVTDLKAFFARLKARGYKLGIASSDNENSIRQTAIRFGFEEDIDFVAGYDSGYGTKPQPGMVLGFCEAIGFPPERVAVVGDNNHDLHMAKNAGAGLRIAVLTGTGSRESLGADAHYCFDDITGLEALLPERAV”, the “soluble on expression in E. coli” value is given as “not soluble”.
Take “MVAGFTVHSGPHHVPHRDMTHHSRPPGHAPRVTILMPVYNGEKYLAAAMESILDQTFRDFILLIIDDGSSDSSLAIARSFGDPRVQVERNPKNLGLVKTLNRGLDLVQTEFVARMDCDDIALPDRLEKQIAFLDENPDIGMCGTAYELFHESLRQTIRPPCRHEEIVYGLLDDNVFLHSSVIVRMEVLNRHGLRYREDYRLAEDYELWARLARYTHIGNLPQVLVRYRSHPENVSNTNKGEQIATRDRVRLEHLESFGLAPAADQKTLHIDLFSLAFQGSPDQLADARRWLEALARAVSTRCGLPLGRLHRDFALLWYSACGRSAHHGLTVLFSYLKSAMAWKGPKSYILKLLFRCLMRDPIPAVTK”: the “soluble on expression in E. coli” value was “not soluble”.
For the sequence “MVAHDETGGLLPIKRTIRVLDVNNQSFREQEEPSNKRVRPLARVTSLANLISPVRNGAVRRFGQTIQSFTLRGDHRSPASAQKFSSRSTVPTPAKRRSSALWSEMLDITMKESLTTREIRRQEAIYEMSRGEQDLIEDLKLARKAYHDPMLKLSIMSEEELTHIFGDLDSYIPLHEDLLTRIGEATKPDGTVEQIGHILVSWLPRLNAYRGYCSNQLAAKALLDQKKQDPRVQDFLQRCLESPFSRKLDLWSFLDIPRSRLVKYPLLLKEILKHTPKEHPDVQLLEDAILIIQGVLSDINLKKGESECQYYIDKLEYLDEKQRDPRIEASKVLLCHGELRSKSGHKLYIFLFQDILVLTRPVTRNERHSYQVYRQPIPVQELVLEDLQDGDVRMGGSFRGAFSNSEKAKNIFRIRFHDPSPAQSHTLQANDVFHKQQWFNCIRAAIAPFQSAGSPPELQGLPELHEECEGNHPSARKLTAQRRASTVSSVTQVEVDENAYRCGSGMQMAEDSKSLKTHQTQPGIRRARDKALSGGKRKETLV”, the “soluble on expression in E. coli” value was “soluble”.
With “MVAMFLAVAVVLGLATSPTAEGGKATTEEQKLIEDVNASFRAAMATTANVPPADKYKTFEAAFTVSSKRNLADAVSKAPQLVPKLDEVYNAAYNAADHAAPEDKYEAFVLHFSEALRIIAGTPEVHAVKPGA”, the “soluble on expression in E. coli” value is recorded as “soluble”.
With “MVARDTTAPQVKIVNPVTGNVSGSNVPISVNASDDSGASGITYALYIDGVLKATGKGSTLGYNWNIRNVAAGAHTVQVVAKDAAGNSASSSVSVTVVKLEHHHHHH”, the “soluble on expression in E. coli” value is “not soluble”.
As for “MVARSPKGCQEKPVASGKSGIMPSSGRGFRALAPRTLAPFQGAFGGGPSSPGGPHEGGPTPWPTRWRSGSSASGARAGVTPRTLRRIFLEEVERELGPEKARLLAKQTLPFEEIFVVEGRKQRPFSKGLLTRSLEDAGFSLREAHELAKAVERRLRLEGVRRIPAKRLEKVVAEEARRLYGPEAGERYRARLLYAGELFVEEAPGAPRVPFSKGILAQSLMAIGLSPDRAFRLAREMEVALHREGVQVIRRDELRRRVHQALLREAGEEMARRYLILRSLRKQPRPVHILIGGVTGVGKSVLASALAYRLGITHIVPSDAVREVFRVSLSKDLLPTLHLSTFEAWRALSPGLGLEGESYEVQVMRGFLDQVAKVAVGLKAIQERSALEGTSIVLEGVHVVPRFLQHPYQDRVFTIPMLVAVQDENLHRDRFLLRDRETGHARPKERYLQHFEEIRLIQNHLLRWAREEGIPVIPGEDLDEGIEKALEVLVAYLEAQGQRLEEAHA”, the “soluble on expression in E. coli” value was “soluble”.
For the sequence “MVASSINEESSLAVNLTSDVEKASKTLFKAFEKSYANDYLMKKFFHIPITEKVSRARINAMIHYYTTCYHDLDGEIAEANDFDAVAIWSRPGCHLPATLSDDESFNKIFFSRLDCEEARSHASGNGLLLPLCHRKRS”, the “soluble on expression in E. coli” value was “not soluble”.
Take “MVCFASLFEEVSMHTCPLCHNQHTRHYFEDKHREYLQCEQCYLVFVNPDQRLDAETEKAHYDLHENNPEDIGYRRFLSRIADPITERISPQSNGIDFGCGPGPTLSLMLEEAGHNMALYDIYYHPDTAVLEKQYDFMTATEVIEHLYHPDVVWKQWLNLVKPGGWIGLMTKMVIDVEAFKSWHYKNDPTHVVFFSRDTFQFLAERDKLELEFIGNDVILLRKTQLEHHHHHH”: the “soluble on expression in E. coli” value is “soluble”.
As for “MVCSGAPVALIPTSSGAIMLDYPSMRAVALVARTGSFEKAAQVLCVTPSAVSQRIKQLEERLGVVLIVRGNPCVATEKGEWLCRHMDHVGMLESELFRQLPALTEAGDAQERVTLNIATNADSLGTWFLDAVSKFTGGSDYLVNIAVDDQDHTVEWLRGGRVLAAVTAHDKPVQGCRVTPLGVLRYHATASPDFMARHFADGVTPAALARAPGLTFNQKDRLQASWIRTALGEDVSYPTHWLPSTDGFVKASLAGMGWGLNPVQLVAEHLAAGRLVELMPGTPLDIPLYWQVNRLAAERLAGLTANMVGTARVVLMPVG”, the entry is “soluble”; as for “MVDQAQDTLRPNNRLSDMQATMEQTQAVENRVLERLNAGKTVRSFLITAVELLTEAVNLLVLQVFRKDDYAVKYAVEPLLDGDGPLGDLSVRLKLIYGLGVINRQEYEDAELLMALREELNHDGNEYAFTDDEILGPFGELHCVAALPPPPQFEPADSSLYAMQIQRYQQAVRSTMVLSLTELISKISLKKAFQK”, “not soluble”.
On to “MVDSIIFDLDGTLWDSTEEVCKVWQDVLSEHKEIELSVTKDLFRSLMGLSFEEIANRLFPNLSEEERMNLLNECSLKECDYLSENGAKLFDDIEDTLKLLSKKYKLFIVSNCQAGYIESFLKAHKLEQYFIDFECPGNTGLHKGENNKLIIERNKLINPIYVGDTQGDANSAKFVGIPFIYAKYGFGNVDVYDYFIDSFKDLLEHDILK”, for which the “soluble on expression in E. coli” value is listed as “not soluble”.
As for “MVDVIALGEPLIQFNSFNPGPLRFVNYFEKHVAGSELNFCIAVVRNHLSCSLIARVGNDEFGKNIIEYSRAQGIDTSHIKVDNESFTGIYFIQRGYPIPMKSELVYYRKGSAGSRLSPEDINENYVRNSRLVHSTGITLAISDNAKEAVIKAFELAKSRSLDTNIRPKLWSSLEKAKETILSILKKYDIEVLITDPDDTKILLDVTDPDEAYRKYKELGVKVLLYKLGSKGAIAYKDNVKAFKDAYKVPVEDPTGAGDAMAGTFVSLYLQGKDIEYSLAHGIAASTLVITVRGDNELTPTLEDAERFLNEFKT”, the “soluble on expression in E. coli” value is reported as “soluble”.
Take “MVEEAERIALISHTAPDGDSVGSSIGFAAMLREKGKSHISVIVPDDIPQYLYCIPGANKVIVHETHPSEAEKALAEADLVFCMDFNAPHRVAGLQSALESSSAPKVLIDHHLYPADIFTLSFSYPPLSSTSELVLRLAKAIGMESYLTQDAATALMTGILTDTGVFSYSSSDPDLYLLVADLMRAGADKDTIIRNTFQQNSEGKMRMQGYVLYEKMTLLPEMGVAYFTLSAEELVRFHNRTGDTDGLANLPLDIAGIEAVCFLREDKNQIKLSFRSTGNYPVNTLAENFGGGGHKNAAGGEFQGSLQEATEKLLKIWKDFNPKNYNNKNQQLEHHHHHH”: the “soluble on expression in E. coli” value is reported as “soluble”.
As to “MVEIYLFVNPLGGVCLEIEKEIIQLSVNDKKKIQLRFIPLLNMKTINEFLSRQHIPINDIKRRNRIFEDLYSAALDYKAAQLQGRKKGRQLLIGLQKAVAEDGLAYSPELSEELLLAAGGDIDMYRKDRQSDFVKESFQTDQKVAREMGIKQHPTAVVYNYTCENDFGILVENFENMDEIKQLCRVHPHNEPLLNQGDATFEFKRRSNYHFPNGHLHLL”, the “soluble on expression in E. coli” value is listed as “not soluble”.
“MVEKEEAGGGISEEEAAQYDRQIRLWGLEAQKRLRASRVLLVGLKGLGAEIAKNLILAGVKGLTMLDHEQVTPEDPGAQFLIRTGSVGRNRAEASLERAQNLNPMVDVKVDTEDIEKKPESFFTQFDAVCLTCCSRDVIVKVDQICHKNSIKFFTGDVFGYHGYTFANLGEHEFVEEKTKVAKVSQGVEDGPDTKRAKLDSSETTMVKKKVVFCPVKEALEVDWSSEKAKAALKRTTSDYFLLQVLLKFRTDKGRDPSSDTYEEDSELLLQIRNDVLDSLGISPDLLPEDFVRYCFSEMAPVCAVVGGILAQEIVKALSQRDPPHNNFFFFDGMKGNGIVECLGPK”: the “soluble on expression in E. coli” value was “soluble”.
As for “MVELKVPMFPESVADGTLAQWNKNEGDFVNEGDILAEIETDKVVLEVPATSSGVLKGIKKHAGDTVLSEESLAIIDTAVSTSEPNQQTTNQGNASEATATGQEIDIKAPVFPESVADGTISEWHKKEGEAVSEGDILAEIETDKVVLEVPATSNGVLTKILKTAGETVLSAELIAKITAGGATATTKSEASVGVSQANNDPHLVPSARKAFNASGLDTAANIEGTGKKGRITSEDVKKAVASVNKPQQQTVVINQGARYEKRVKMTRLRQTIANRLVEVQHTNAILTTFNEVDMSAVMELRNKYKDMFVKEHDTKLGFMSFFIKAATEALKKFPDVNASIDGDEIVYHNYFDIGIAVGTDRGLVVPVLRDTDTKSLAELEADVLDKAIKGRDGKLSLEDMQGGTFTITNGGTYGSMLSTPIINSPQSAILGMHNIVERPVVVKGEIKIRPIMYLALSYDHRIIDGGTSVRFLKMIKELIEDPNRILLQV”, the entry is “not soluble”.
Take “MVENSELRKAGLKVTLPRVKILQMLDSAEQRHMSAEDVYKALMEAGEDVGLATVYRVLTQFEAAGLVVRHNFDGGHAVFELADSGHHDHMVCVDTGEVIEFMDAEIEKRQKEIVRERGFELVDHNLVLYVRKKK”: the “soluble on expression in E. coli” value is “not soluble”.
